Experimental data reported in patent US20150337042A1 (AbbVie / Abbott, published 2015).
Residue numbers refer to the chain shown, from its start.

B1: Antibody P (AbP) (antibody, V domains shown)
VH: EVQLQESGPGLVKPSQTLSLTCTVSGYSISHDFAWNWIRQPPGKGLEWMGYISYSGNTRYQPSLKSRITISRDTSKNQFFLKLNSVTAADTATYYCVTASWGLPWWGQGTLVTVSS
VL: DIQMTQSPSSMSVSVGDRVTITCHSSQDINMNVGWLQQKPGKSFKGLIYHGAILDDGVPSRFSGSGSGTDYTLTISSLQPEDFATYYCVQYAEFPWTFGGGTKLEIK
notes: Full length IgG1
B2: Antibody A (AbA) (antibody, human IgG1, kappa, V domains shown)
VH: B1 VH with H31R, S55N, W101R, L103F, W105Y
VL: DIQMTQSPSSMSVSVGDRVTITCHSSQDINSNIGWLQQKPGKSFKGLIYHGTNLDDGVPSRFSGSGSGTDYTLTISSLQPEDFATYYCVQYAQFPWTFGGGTKLEIKR
notes: IgG1
B3: Antibody K (AbK) (antibody, V domains shown)
VH: B1 VH with H31R, S55N, W101R, L103F
VL: B1 VL with N30T, M31Y, A52S, I53N, D56H, A92D, E93D
notes: Full length IgG1
B4: Antibody M (AbM) (antibody, V domains shown)
VH: B1 VH with S30G, H31R, S55N, W101R, L103F, W105Y
VL: B1 VL with N30T, M31Y, A52S, I53N, D56H, A92D, E93D
notes: Full length IgG1
B5: Antibody G (AbG) (antibody, V domains shown)
VH: B1 VH with H31N, P41L, S55K, W101R, W105Y
VL: B1 VL with N30T, M31Y, V33I, I53N, A92D
notes: Full length IgG1
B6: Antibody O (AbO) (antibody, V domains shown)
VH: B1 VH with S30G, H31K, S55N, W101R, L103F, W105Y
VL: B1 VL with N30T, M31Y, A52S, I53N, D56H, A92D, E93D
notes: Full length IgG1; also called Antibody 0
B7: Antibody N (AbN) (antibody, V domains shown)
VH: B1 VH with S30G, H31R, W101R, L103F, W105Y
VL: B1 VL with N30T, M31Y, A52S, I53N, D56H, A92D, E93D
notes: Full length IgG1
B8: Antibody D (AbD) (antibody, V domains shown)
VH: B1 VH with H31S, S100G, W101R, L103F, W105Y
VL: B1 VL with M31S, V33L, I53N, D55H
notes: Full length IgG1
B9: Antibody E (AbE) (antibody, V domains shown)
VH: B1 VH with H31S, S100G, W101R, L103F, W105Y
VL: B1 VL with M31S, V33L, A52S, I53N, D56H, A92D, E93Q
notes: Full length IgG1
B10: Antibody L (AbL) (antibody, V domains shown)
VH: B1 VH with S30G, H31K, S55N, W101R, W105Y
VL: B1 VL with N30T, M31Y, A52S, I53N, D56H, A92D, E93D
notes: Full length IgG1
B11: Antibody F (AbF) (antibody, V domains shown)
VH: B1 VH with H31R, W101R, L103F, W105Y
VL: B1 VL with M31S, V33I, A52T, I53N, E93Q
notes: Full length IgG1
B12: Antibody H (AbH) (antibody, V domains shown)
VH: B1 VH with S30G, H31K, S55N, W101R, W105Y
VL: B1 VL with N30T, M31Y, V33I, I53N, A92D
notes: Full length IgG1
B13: Antibody J (AbJ) (antibody, V domains shown)
VH: B1 VH with S30G, H31K, W101R, W105Y
VL: B1 VL with N30T, M31Y, V33I, I53N, A92D
notes: Full length IgG1
B14: Antibody B (AbB) (antibody, V domains shown)
VH: B1 VH with H31N, S55K, W101R, L103F
VL: B1 VL with M31S, V33I, A52T, I53N, E93Q
notes: Converted from scFv into a full length IgG1 antibody
B15: Antibody C (AbC) (antibody, V domains shown)
VH: B1 VH with H31S, S100G, W101R, L103F, W105Y
VL: B1 VL with M31S, V33I, A52T, I53N, A92E, E93Q
notes: Full length IgG1

molecular target: T1, wild type human EGFR on cells (A431, NHEK, SCC-15, H292) (human, UniProt P00533 25-1210); assay: cell-based or functional assay

IC50 of inhibition of EGFR signaling in A431 cells (phospho-EGFR ELISA)	Binder
> 40 nM	B1

molecular target: T2, truncated wild type EGFR 1-525 (EGFR1 (1-525)-SRGPF-Myc-NMHTG-6His) (human, UniProt P00533 25-525); assay: SPR (summary of FIG. 6)
T2 construct: the signal peptide is left out; not shown: Myc tag

koff	Binder
< 0.0001 s⁻¹	B1

molecular target: T3, EGFRvIII on U87MG cells (human, UniProt P00533 298-1210); assay: competition FACS on U87MG de2-7 cells expressing EGFRvIII; competitor Ab1-FITC at 100 nM
T3 construct: also called de2-7 EGFR

IC50 (read off the curve)	Binder
~30 nM	B2
~30 nM	B3
~30 nM	B1
~30 nM	B4
~20 nM	B5

molecular target: T1, wild type human EGFR on cells (A431, …); assay: FACS binding to normal human epidermal keratinocytes (NHEK), AlexaFluor 488 secondary antibody
Method: NHEK cells express wild type EGFR.
Cells were harvested when approximately 80% confluent using trypsin, neutralized and washed once in PBS/1% FBS (FACS buffer) then resuspended at 2.5×10⁶ cells/mL in FACS buffer. 100 μL of cells/well were added to a round bottom 96-well plate. 10 μL of a 10x concentration of Ab (final concentrations are listed in the Figures) was added and plate was incubated at 4° C. for one hour. Wells were washed twice with FACS buffer then resuspended in 50 μL of secondary Ab (AlexaFluor 488) diluted in FACS buffer. The plate was incubated at 4° C. for one hour then washed twice with FACS buffer. Cells were then resuspended in 100 μL of PBS/1% formaldehyde and analyzed on a Becton Dickinson LSRII flow cytometer. Data was analyzed using WinList flow cytometry analysis software.

EC50 (read off the curve)	Binder
~50 nM	B2
~40 nM	B3
~30 nM	B1
~40 nM	B4
~40 nM	B5

molecular target: T2, truncated wild type EGFR 1-525 (EGFR1 …); assay: SPR (Biacore T100)

fold increase in affinity relative to Ab1	Binder
263 fold	B5

molecular target: T4, EGFRvIII extracellular domain (EGFR (1-29)-G-(298-645)-LESRGPF-Myc-NMHTG-6His) (human, UniProt P00533 298-641); assay: SPR (Biacore T100)
T4 construct: also called recombinant EGFRvIII; not shown: Myc tag

fold increase in affinity relative to Ab1	fold increase in binding relative to Ab1	Binder
63 fold	–	B6
–	> 47 fold	B5

molecular target: T2, truncated wild type EGFR 1-525 (EGFR1 …); assay: SPR (Biacore), antibody captured via anti-human Fc, antigen injected
Method: (§1) Biacore analysis was performed using a Biacore T100 with a CM5 sensory chip, and test antibodies were captured via anti-human Fc antibodies that were amino coupled to the chip using a standard amine coupling kit according to manufacturer's instructions (GE healthcare). Briefly, a CM5 chip surface was activated with EDC/NHS. Goat anti-human Fc specific polyclonal antibody (Thermo Fisher Scientific Inc., Rockford, Ill.) was diluted to 25 μg/mL in 10 mM sodium acetate (pH 4.5) and injected over the activated surface to achieve immobilization. Unreacted moieties on the biosensor surface were blocked with ethanolamine. The Biacore T100 is a surface plasmon resonance based biosensor for detecting, characterizing and quantifying bimolecular interactions, including the interactions between an antibody and its antigen. Antigen was injected at 80 μL/minute for 3 minutes and dissociation was followed for 15 minutes.

KD ratio (Ab1/variant Ab)	Kd	koff	kon	Binder
642	3.5 nM	1.71e-05 s⁻¹	4840 M⁻¹ s⁻¹	B7
10.1	–	0.000731 s⁻¹	3260 M⁻¹ s⁻¹	B2
4.1	550 nM	0.00322 s⁻¹	5820 M⁻¹ s⁻¹	B8
3.8	–	0.00367 s⁻¹	6170 M⁻¹ s⁻¹	B9
722	3.1 nM	1.78e-05 s⁻¹	5650 M⁻¹ s⁻¹	B10
1370	–	7.92e-06 s⁻¹	4780 M⁻¹ s⁻¹	B3
106	21 nM	7.67e-05 s⁻¹	3580 M⁻¹ s⁻¹	B1
387	5.9 nM	2.26e-05 s⁻¹	3840 M⁻¹ s⁻¹	B4
5.4	420 nM	0.000831 s⁻¹	1980 M⁻¹ s⁻¹	B11
582	3.9 nM	2.05e-05 s⁻¹	5250 M⁻¹ s⁻¹	B6
–	8.6 nM	5.88e-05 s⁻¹	6800 M⁻¹ s⁻¹	B5
441	5.2 nM	4.07e-05 s⁻¹	7900 M⁻¹ s⁻¹	B12
60.5	38 nM	8.27e-05 s⁻¹	2200 M⁻¹ s⁻¹	B13
10.5	220 nM	0.00119 s⁻¹	5460 M⁻¹ s⁻¹	B14

molecular target: T4, EGFRvIII extracellular domain (EGFR …); assay: as above
Method: as §1

KD ratio (Ab1/variant Ab)	Kd	koff	kon	Binder
12.5	0.75 nM	0.000103 s⁻¹	137000 M⁻¹ s⁻¹	B7
4.1	–	0.000173 s⁻¹	76100 M⁻¹ s⁻¹	B2
2.6	3.6 nM	0.00079 s⁻¹	220000 M⁻¹ s⁻¹	B15
1.5	6.1 nM	0.000866 s⁻¹	141000 M⁻¹ s⁻¹	B8
1.2	8.2 nM	0.00158 s⁻¹	193000 M⁻¹ s⁻¹	B9
27.1	0.35 nM	6.95e-05 s⁻¹	200000 M⁻¹ s⁻¹	B10
15.8	0.6 nM	7.75e-05 s⁻¹	130000 M⁻¹ s⁻¹	B3
8.2	1.2 nM	0.000135 s⁻¹	117000 M⁻¹ s⁻¹	B1
14.9	0.63 nM	0.000118 s⁻¹	187000 M⁻¹ s⁻¹	B4
2.4	3.9 nM	0.000324 s⁻¹	83600 M⁻¹ s⁻¹	B11
35.2	0.27 nM	5.22e-05 s⁻¹	196000 M⁻¹ s⁻¹	B6
47.2	0.2 nM	7.44e-05 s⁻¹	374000 M⁻¹ s⁻¹	B5
63.1	0.15 nM	4.89e-05 s⁻¹	327000 M⁻¹ s⁻¹	B12
31.8	0.3 nM	9.4e-05 s⁻¹	318000 M⁻¹ s⁻¹	B13
4.2	2.2 nM	0.000173 s⁻¹	78300 M⁻¹ s⁻¹	B14

molecular target: T2, truncated wild type EGFR 1-525 (EGFR1 …); assay: SPR (Biacore T100), antibody captured on anti-human Fc, antigen in solution
Method: as §1

Kd	fold improvement in KD over Ab1	fold increase in affinity over the KD of Ab1	fold increase over the KD of Ab1	Binder
220 nM	10 fold	–	–	B2
590 nM	–	~4 fold	–	B9
1.7 nM	–	–	> 1300 fold	B3

molecular target: T4, EGFRvIII extracellular domain (EGFR …); assay: as above
Method: as §1

Kd	fold increase in affinity versus Ab1	Binder
2.3 nM	4 fold	B2
